# Results reported in patent US8765433B2, “Alcohol dehydrogenases (ADH) useful for fermentive production of lower alkyl alcohols” (priority 2009, dated 2014).
# B1: Methylocella silvestris BL2 ADH (MsADH), SEQ ID NO: 35 (Methylocella silvestris BL2) (protein)
# chain: MKALVYHGPGQKALEERPKPQIEASGDAIVKIVKTTICGTDLHILKGDVATCAPGRILGHEGVGIIDSVGAGVTAFQPGDRVLISCISSCGKCDYCRRGLYSHCTTGGWILGNEIDGTQAEYVRTPHADTSLYRIPAGADEEALVMLSDILPTGFECGVLNGKVEPGSTVAIVGAGPIGLAALLTAQFYAPGDIIMIDLDDNRLDVARRFGATHTINSGDGKAAEAVKALTGGIGVDTAIEAVGIPATFLLCEDIVAPGGVIANVGVHGVKVDLHLERLWAHNITITTRLVDTVTTPMLLKTVQSKKLDPLQLITHRFTLDHILDAYDTFSRAADTKALKVIVSA
# B2: horse liver ADH (HLADH), SEQ ID NO: 21 (Equus caballus) (protein)
# chain: MSTAGKVIKCKAAVLWEEKKPFSIEEVEVAPPKAHEVRIKMVATGICRSDDHVVSGTLVTPLPVIAGHEAAGIVESIGEGVTTVRPGDKVIPLFTPQCGKCRVCKHPEGNFCLKNDLSMPRGTMQDGTSRFTCRGKPIHHFLGTSTFSQYTVVDEISVAKIDAASPLEKVCLIGCGFSTGYGSAVKVAKVTQGSTCAVFGLGGVGLSVIMGCKAAGAARIIGVDINKDKFAKAKEVGATECVNPQDYKKPIQEVLTEMSNGGVDFSFEVIGRLDTMVTALSCCQEAYGVSVIVGVPPDSQNLSMNPMLLLSGRTWKGAIFGGFKSKDSVPKLVADFMAKKFALDPLITHVLPFEKINEGFDLLRSGESIRTILTF
# notes: purchased Sigma A-6128
# B3: Phenylobacterium zucineum HLK1 ADH (PzADH), SEQ ID NO: 34 (Phenylobacterium zucineum HLK1) (protein)
# chain: MKALVYGGPGQKSLEDRPKPELQAPGDAIVRIVKTTICGTDLHILKGDVATCAPGRILGHEGVGIVDSVGAAVTAFRPGDHVLISCISACGKCDYCRRGMYSHCTTGGWILGNEIDGTQAEYVRTPHADTSLYPVPAGADEEALVMLSDILPTGFECGVLNGKVAPGGTVAIVGAGPIGLAALLTAQFYSPAEIIMIDLDDNRLGIARQFGATQTINSGDGRAAETVKALTGGRGVDTAIEAVGVPATFELCQDLVGPGGVIANIGVHGRKVDLHLDRLWSQNIAITTRLVDTVSTPMLLKTVQSRKLDPSQLITHRFRLDEILAAYDTFARAADTQALKVIIAA
# B4: Beijerinckia indica subsp. Indica ATCC 9039 ADH (BiADH), SEQ ID NO: 31 (Beijerinckia indica subsp. indica ATCC 9039) (protein)
# chain: MKALVYRGPGQKLVEERQKPELKEPGDAIVKVTKTTICGTDLHILKGDVATCKPGRVLGHEGVGVIESVGSGVTAFQPGDRVLISCISSCGKCSFCRRGMFSHCTTGGWILGNEIDGTQAEYVRVPHADTSLYRIPAGADEEALVMLSDILPTGFECGVLNGKVAPGSSVAIVGAGPVGLAALLTAQFYSPAEIIMIDLDDNRLGLAKQFGATRTVNSTGGNAAAEVKALTEGLGVDTAIEAVGIPATFELCQNIVAPGGTIANVGVHGSKVDLHLESLWSHNVTITTRLVDTATTPMLLKTVQSHKLDPSRLITHRFSLDQILDAYETFGQAASTQALKVIISMEA
# B5: Saccharomyces cerevisiae ADH6 (ScADH6), SEQ ID NO: 22 (Saccharomyces cerevisiae S288C) (protein)
# chain: MSYPEKFEGIAIQSHEDWKNPKKTKYDPKPFYDHDIDIKIEACGVCGSDIHCAAGHWGNMKMPLVVGHEIVGKVVKLGPKSNSGLKVGQRVGVGAQVFSCLECDRCKNDNEPYCTKFVTTYSQPYEDGYVSQGGYANYVRVHEHFVVPIPENIPSHLAAPLLCGGLTVYSPLVRNGCGPGKKVGIVGLGGIGSMGTLISKAMGAETYVISRSSRKREDAMKMGADHYIATLEEGDWGEKYFDTFDLIVVCASSLTDIDFNIMPKAMKVGGRIVSISIPEQHEMLSLKPYGLKAVSISYSALGSIKELNQLLKLVSEKDIKIWVETLPVGEAGVHEAFERMEKGDVRYRFTLVGYDKEFSD
# notes: hexa-histidine (pBADHisA) (N); made in house; host or cells: E. coli (BL21-CodonPlus or a proprietary E. coli strain)
# B6: Clostridium beijerinckii ADH (CbADH), SEQ ID NO: 29 (Clostridium beijerinckii) (protein)
# chain: MKGFAMLGINKLGWIEKERPVAGSYDAIVRPLAVSPCTSDIHTVFEGALGDRKNMILGHEAVGEVVEVGSEVKDFKPGDRVIVPCTTPDWRSLEVQAGFQQHSNGMLAGWKFSNFKDGVFGEYFHVNDADMNLAILPKDMPLENAVMITDMMTTGFHGAELADIQMGSSVVVIGIGAVGLMGIAGAKLRGAGRIIGVGSRPICVEAAKFYGATDILNYKNGHIVDQVMKLTNGKGVDRVIMAGGGSETLSQAVSMVKPGGIISNINYHGSGDALLIPRVEWGCGMAHKTIKGGLCPGGRLRAEMLRDMVVYNRVDLSKLVTHVYHGFDHIEEALLLMKDKPKDLIKAVVIL
# notes: as for B5
# B7: Thermus sp. ATN1 ADH (TADH), SEQ ID NO: 33 (Thermus sp. ATN1) (protein)
# chain: MRAVVFENKERVAVKEVNAPRLQHPLDALVRVHLAGICGSDLHLYHGKIPVLPGSVLGHEFVGQVEAVGEGIQDLQPGDWVVGPFHIACGTCPYCRRHQYNLCERGGVYGYGPMFGNLQGAQAEILRVPFSNVNLRKLPPNLSPERAIFAGDILSTAYGGLIQGQLRPGDSVAVIGAGPVGLMAIEVAQVLGASKILAIDRIPERLERAASLGAIPINAEQENPVRRVRSETNDEGPDLVLEAVGGAATLSLALEMVRPGGRVSAVGVDNAPSFPFPLASGLVKDLTFRIGLANVHLYIDAVLALLASGRLQPERIVSHYLPLEEAPRGYELFDRKEALKVLLVVRG
# B8: Saccharomyces cerevisiae ADH7 (ScADH7), SEQ ID NO: 23 (Saccharomyces cerevisiae S288C) (protein)
# chain: MLYPEKFQGIGISNAKDWKHPKLVSFDPKPFGDHDVDVEIEACGICGSDFHIAVGNWGPVPENQILGHEIIGRVVKVGSKCHTGVKIGDRVGVGAQALACFECERCKSDNEQYCTNDHVLTMWTPYKDGYISQGGFASHVRLHEHFAIQIPENIPSPLAAPLLCGGITVFSPLLRNGCGPGKRVGIVGIGGIGHMGILLAKAMGAEVYAFSRGHSKREDSMKLGADHYIAMLEDKGWTEQYSNALDLLVVCSSSLSKVNFDSIVKIMKIGGSIVSIAAPEVNEKLVLKPLGLMGVSISSSAIGSRKEIEQLLKLVSEKNVKIWVEKLPISEEGVSHAFTRMESGDVKYRFTLVDYDKKFHK
# notes: as for B5
# Key:
# [1] = substrate: CC(C)C=O; test: isobutyraldehyde reduction kinetics (A340, initial rates); type: biochemical, Methylocella silvestris BL2; details: other: 30° C., pH 7.0, NADH specific
# From the text: (§1) This example describes preparation of ADH-gene constructs for over-expression/purification and measurement of enzyme activities using a time-course assay. Horse-liver ADH (HLADH; A-6128) was purchased from Sigma. Achromobacter xylosoxidans SadB (SadB), Saccharomyces cerevisiae ADH6 (ScADH6) and ADH7 (ScADH7), Entamoeba histolytica ADH1 (EhADH1), Bos Taurus Aldehyde Reductase (BtARD), Beijerinckia indica subsp. Indica ATCC 9039 (BiADH), Clostridium beijerinckii ADH (CbADH), Rana perezi ADH8 (RpADH8), Rattus norvegicus ADH1 (RnADH1), Thermus sp. ATN1 ADH (TADH), Phenylobacterium zucineum HLK1 ADH (PzADH), Methylocella silvestris BL2 ADH (MsADH), Acinetobacter baumannii AYE ADH (AbADH), Geobacillus sp. WCH70 ADH (GbADH), Vanderwaltozyma polyspora DSM 70294 ADH (VpADH), Mucor circinelloides ADH (McADH), and Rhodococcus erythropolis PR4ADH (ReADH) were the candidates for which subclones were prepared for protein expression and purification.
# (§2) As a routine practice, the crude extracts and purified proteins were assayed for butanol oxidation activity, in order to ensure that the recombinant proteins were active throughout the purification process. […] Alcohol oxidation activities were carried out in 50 mM sodium phosphate buffer at pH 8.8 and aldehyde reduction reactions were assayed in 190 mM potassium phosphate buffer at pH 7.0. […]
# (§3) Kinetic constants of the ADH enzymes were calculated and compared to identify those candidate ADH enzymes with the most desirable properties for the conversion of isobutyraldehyde to isobutanol in the last step of the engineered pathway for isobutanol production. […] The kcat/KM is derived from the individual numbers of kcat and KM and not an experimentally determined value. […]
# (§4) Seven additional candidate ADH enzymes were synthesized, expressed, and assayed according to methods such as described in Example 2. […] A comparison of KM, KI, and kcat/KM for each candidate enzyme as compared to the same parameter for SadB are given in Table 9 as a percentage of the values determined (Table 7) for SadB. […]
# [2] = substrate: CC(C)CO; test: isobutanol oxidation kinetics; type: biochemical, horse; details: other: 30° C., pH 8.8, 7.5 mM NAD
# Description: (§5) As a routine practice, the crude extracts and purified proteins were assayed for butanol oxidation activity, in order to ensure that the recombinant proteins were active throughout the purification process. […] Alcohol oxidation activities were carried out in 50 mM sodium phosphate buffer at pH 8.8 and aldehyde reduction reactions were assayed in 190 mM potassium phosphate buffer at pH 7.0. Depending on the nature of reaction being carried out, the enzyme and cofactor stocks were diluted in the reaction buffers at the respective pHs. Either buffer or cell extract prepared from the proprietary E. coli strain (with no ADH plasmid) was used as the negative control for assays with purified protein and cell-free extracts, respectively.
# as §3, with “production. The assays for determining the kinetic constants were carried out using initial rates from the assays described above. […] The concentration of a given enzyme was such that it was conducive for the measurement of initial velocities over a 1-min time course.” for “production.”
# [3] = substrate: CC(C)C=O; test: isobutyraldehyde reduction kinetics (A340, initial rates); type: biochemical, horse; details: other: 30° C., pH 7.0, 200 μM NADH
# [4] = substrate: CC(C)C=O; test: as above; type: biochemical, Phenylobacterium zucineum HLK1; details: other: 30° C., pH 7.0, NADH specific
# From the text: as §1, §2, §3, §4
# [5] = substrate: CC(C)CO; test: isobutanol oxidation kinetics; type: biochemical, Beijerinckia indica; details: other: 30° C., pH 8.8, 7.5 mM NAD
# Description: as §5
# as §3, with “production. The assays for determining the kinetic constants were carried out using initial rates from the assays described above. […] The concentration of a given enzyme was such that it was conducive for the measurement of initial velocities over a 1-min time course.” for “production.”
# [6] = substrate: NC(=O)C1=CN([C@@H]2O[C@H](COP(=O)(O)OP(=O)(O)OC[C@H]3O[C@@H](n4cnc5c(N)ncnc54)[C@H](O)[C@@H]3O)[C@@H](O)[C@H]2O)C=CC1; test: purified protein, by the assay type; details: other: cofactor; 30.0 °C
# [7] = substrate: CC(C)C=O; test: purified protein, by the assay type; type: biochemical, Beijerinckia indica; details: other: 30° C., pH 7.0, 200 μM NADH
# Description: (§6) The assays for determining the kinetic constants were carried out using initial rates from the assays described above. […] The concentration of a given enzyme was such that it was conducive for the measurement of initial velocities over a 1-min time course. […] The kcat/KM is derived from the individual numbers of kcat and KM and not an experimentally determined value. […]
# [8] = substrate: CC(C)C=O; test: isobutyraldehyde reduction kinetics (A340, initial rates); type: biochemical, Saccharomyces cerevisiae; details: other: 30° C., pH 7.0, NADPH specific
# Description: as §6
# [9] = substrate: CC(C)C=O; test: as above; type: biochemical, Clostridium beijerinckii; details: other: 30° C., pH 7.0, NADPH specific
# Description: as §6
# [10] = substrate: CC(C)C=O; test: as above; type: biochemical, Thermus sp. ATN1; details: other: 30° C., pH 7.0, NADH specific
# Description: The assays for determining the kinetic constants were carried out using initial rates from the assays described above. […] The concentration of a given enzyme was such that it was conducive for the measurement of initial velocities over a 1-min time course. For each enzyme, Michaelis-Menten plots were generated with a broad range of substrate concentrations. Rough estimates of KM were obtained, based on which the assays were redesigned so as to use substrate concentrations in the range 0.5 to 10 times the KM value, to be able to obtain the appropriate kinetic constants. […] The Enzyme kinetics module (Version 1.3) of SigmaPlot 11 (Systat Software, Inc.) was used to fit data to Michaelis-Menten equations and calculate the kinetic constants. The kcat/KM is derived from the individual numbers of kcat and KM and not an experimentally determined value.
# All other numbers are values from either one assay or are averages from 2 assays performed with the same enzyme sample.
protein,measurement,setting,value
B1,Km,[1],60 µM
same,kcat,[1],33 s⁻¹
same,kcat/Km,[1],530000 M⁻¹ s⁻¹
B2,Km,[2],KM = 0.4 mM] mM
same,Km,[3],100 µM
same,kcat,[3],8 s⁻¹
same,kcat/Km,[3],82000 M⁻¹ s⁻¹
B3,Km,[4],100 µM
same,kcat,[4],30 s⁻¹
same,kcat/Km,[4],321000 M⁻¹ s⁻¹
B4,Km,[5],KM = 4.7 mM] mM
same,Km,[6],KM (NADH) = 0.06 mM mM
same,Km,[7],200 µM
same,kcat,[7],283 s⁻¹
same,kcat/Km,[7],1.25e+06 M⁻¹ s⁻¹
B5,Km,[8],600 µM
same,kcat,[8],47 s⁻¹
same,kcat/Km,[8],81000 M⁻¹ s⁻¹
B6,Km,[9],1500 µM
same,kcat,[9],123 s⁻¹
same,kcat/Km,[9],85000 M⁻¹ s⁻¹
B7,Km,[10],1300 µM
same,kcat,[10],15 s⁻¹
same,kcat/Km,[10],11000 M⁻¹ s⁻¹
B8,Km,[8],300 µM
same,kcat,[8],36 s⁻¹
same,kcat/Km,[8],120000 M⁻¹ s⁻¹
